# Measurements: US20160130315A1 (AJOU UNIVERSITY INDUSTRY ACADEMIC COOPERATION FOUNDATION, published 2016)
# B1: neuropilin-2 expressed on cell surface (receptor, human, UniProt O60462 21-931, looked up)
# chain: RGQPDPPCGGRLNSKDAGYITSPGYPQDYPSHQNCEWIVYAPEPNQKIVLNFNPHFEIEKHDCKYDFIEIRDGDSESADLLGKHCGNIAPPTIISSGSMLYIKFTSDYARQGAGFSLRYEIFKTGSEDCSKNFTSPNGTIESPGFPEKYPHNLDCTFTILAKPKMEIILQFLIFDLEHDPLQVGEGDCKYDWLDIWDGIPHVGPLIGKYCGTKTPSELRSSTGILSLTFHTDMAVAKDGFSARYYLVHQEPLENFQCNVPLGMESGRIANEQISASSTYSDGRWTPQQSRLHGDDNGWTPNLDSNKEYLQVDLRFLTMLTAIATQGAISRETQNGYYVKSYKLEVSTNGEDWMVYRHGKNHKVFQANNDATEVVLNKLHAPLLTRFVRIRPQTWHSGIALRLELFGCRVTDAPCSNMLGMLSGLIADSQISASSTQEYLWSPSAARLVSSRSGWFPRIPQAQPGEEWLQVDLGTPKTVKGVIIQGARGGDSITAVEARAFVRKFKVSYSLNGKDWEYIQDPRTQQPKLFEGNMHYDTPDIRRFDPIPAQYVRVYPERWSPAGIGMRLEVLGCDWTDSKPTVETLGPTVKSEETTTPYPTEEEATECGENCSFEDDKDLQLPSGFNCNFDFLEEPCGWMYDHAKWLRTTWASSSSPNDRTFPDDRNFLRLQSDSQREGQYARLISPPVHLPRSPVCMEFQYQATGGRGVALQVVREASQESKLLWVIREDQGGEWKHGRIILPSYDMEYQIVFEGVIGKGRSGEIAIDDIRISTDVPLENCMEPISAFAGENFKVDIPEIHEREGYEDEIDDEYEVDWSNSSSATSGSGAPSTDKEKSWLYTLDPILITIIAMSSLGVLLGATCAGLLLYCTCSYSGLSSRSCTTLENYNFELYDGLKHKVKMNHQKCCSEA
# notes: whole, on cells; Endogenous expression; the same cells also carry neuropilin-1; also called NRP2
# Target: T1, Fc (human, UniProt P01857-1 104-330 = IgG part, limits assumed)
# T1 construct: domain: Fc (hinge-CH2-CH3); Control without TPP; also called control group Fc; antibody heavy-chain constant region
# Assay: FACS on cells carrying neuropilin-1 and -2
binder,measurement,value
B1,binding result,no binding (tested: 1 µM)
